From paper PMC5415106

T1: GST-Dpb11-wild-type, P47027
T1 chain: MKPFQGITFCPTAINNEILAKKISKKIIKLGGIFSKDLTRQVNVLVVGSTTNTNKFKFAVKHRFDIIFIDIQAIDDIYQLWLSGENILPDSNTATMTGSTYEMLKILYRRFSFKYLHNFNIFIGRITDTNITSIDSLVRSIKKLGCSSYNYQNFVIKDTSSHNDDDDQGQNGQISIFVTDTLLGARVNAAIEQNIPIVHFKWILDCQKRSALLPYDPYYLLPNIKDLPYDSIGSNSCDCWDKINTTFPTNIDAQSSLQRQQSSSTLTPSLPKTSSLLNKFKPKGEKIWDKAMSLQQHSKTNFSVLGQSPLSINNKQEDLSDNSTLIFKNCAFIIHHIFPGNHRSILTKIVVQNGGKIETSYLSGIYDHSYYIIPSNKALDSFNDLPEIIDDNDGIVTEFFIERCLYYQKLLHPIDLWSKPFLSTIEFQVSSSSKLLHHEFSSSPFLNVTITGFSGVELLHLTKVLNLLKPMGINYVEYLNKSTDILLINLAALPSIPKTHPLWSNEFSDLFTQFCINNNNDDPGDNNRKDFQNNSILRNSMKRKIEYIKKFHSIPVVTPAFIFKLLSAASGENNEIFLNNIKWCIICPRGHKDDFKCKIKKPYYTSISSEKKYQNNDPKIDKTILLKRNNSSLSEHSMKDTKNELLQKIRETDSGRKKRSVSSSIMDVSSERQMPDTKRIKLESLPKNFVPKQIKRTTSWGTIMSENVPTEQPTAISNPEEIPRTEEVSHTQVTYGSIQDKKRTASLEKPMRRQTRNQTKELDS

T2: PKA-GINS, Q12488
T2 chain 1: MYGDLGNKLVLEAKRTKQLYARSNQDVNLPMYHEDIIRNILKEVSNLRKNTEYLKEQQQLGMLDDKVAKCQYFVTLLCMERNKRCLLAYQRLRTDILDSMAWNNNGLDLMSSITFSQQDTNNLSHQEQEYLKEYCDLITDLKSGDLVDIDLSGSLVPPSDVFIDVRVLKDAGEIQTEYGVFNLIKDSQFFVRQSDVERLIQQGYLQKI
T2 chain 2: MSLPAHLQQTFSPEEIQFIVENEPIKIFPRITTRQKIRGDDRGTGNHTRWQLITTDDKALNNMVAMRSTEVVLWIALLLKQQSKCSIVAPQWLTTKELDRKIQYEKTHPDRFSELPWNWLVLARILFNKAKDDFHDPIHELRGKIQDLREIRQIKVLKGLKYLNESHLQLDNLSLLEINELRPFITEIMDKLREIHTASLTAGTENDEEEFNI
T2 chain 3: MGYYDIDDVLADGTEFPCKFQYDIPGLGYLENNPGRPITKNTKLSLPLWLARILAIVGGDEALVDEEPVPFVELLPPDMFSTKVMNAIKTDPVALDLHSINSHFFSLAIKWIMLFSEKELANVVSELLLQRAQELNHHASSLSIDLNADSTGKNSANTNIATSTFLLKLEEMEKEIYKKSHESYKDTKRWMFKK
T2 chain 4: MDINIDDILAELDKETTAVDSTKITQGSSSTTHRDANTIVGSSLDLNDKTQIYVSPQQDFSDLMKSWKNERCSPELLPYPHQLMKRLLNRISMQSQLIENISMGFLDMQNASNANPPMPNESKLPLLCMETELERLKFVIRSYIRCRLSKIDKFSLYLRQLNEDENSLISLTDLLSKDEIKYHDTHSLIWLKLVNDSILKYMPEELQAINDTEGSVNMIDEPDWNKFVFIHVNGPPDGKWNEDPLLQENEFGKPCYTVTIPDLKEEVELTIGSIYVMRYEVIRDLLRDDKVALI

T3: Sld3 (protein of Fig 3D; the legend prints 'CDK-phosphorylated Sld2'), P53135
T3 chain: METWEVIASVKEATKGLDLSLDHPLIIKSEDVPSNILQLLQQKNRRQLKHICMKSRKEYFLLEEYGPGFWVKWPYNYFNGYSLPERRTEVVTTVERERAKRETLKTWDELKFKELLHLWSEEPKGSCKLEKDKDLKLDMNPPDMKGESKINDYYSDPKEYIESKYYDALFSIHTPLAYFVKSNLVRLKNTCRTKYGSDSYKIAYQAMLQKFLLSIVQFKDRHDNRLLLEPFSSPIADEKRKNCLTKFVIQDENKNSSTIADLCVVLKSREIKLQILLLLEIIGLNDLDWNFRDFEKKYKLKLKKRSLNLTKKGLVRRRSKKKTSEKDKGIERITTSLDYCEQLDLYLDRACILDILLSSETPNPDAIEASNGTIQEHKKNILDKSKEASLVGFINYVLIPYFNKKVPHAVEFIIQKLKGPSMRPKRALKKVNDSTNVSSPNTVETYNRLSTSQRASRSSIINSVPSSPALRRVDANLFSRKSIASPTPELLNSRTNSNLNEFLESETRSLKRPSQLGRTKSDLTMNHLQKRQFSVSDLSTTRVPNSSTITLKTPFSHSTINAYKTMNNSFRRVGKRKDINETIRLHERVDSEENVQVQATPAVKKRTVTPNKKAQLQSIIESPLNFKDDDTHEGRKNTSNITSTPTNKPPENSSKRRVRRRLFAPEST


How the values were obtained:
Assay in all cases: GST pull-down, phosphorimaging
Details in all cases: chain shown with the change, 10 pmoles GST-Dpb11, read off a plot
[1] = molecular target: T1, GST-Dpb11-wild-type, P47027
PKA-GINS, Q12488 = molecular target: T2, PKA-GINS, Q12488
[2] = molecular target: T3, Sld3 (protein of Fig 3D; the legend …)

Row | Binder | response ([1]; 1 pmole Sld2T84D input) [pmol] | response ([1]; 3 pmoles Sld2T84D input) [pmol] | response ([1]; 10 pmoles Sld2T84D input) [pmol] | response (PKA-GINS, Q12488; 1 pmole GINS input, parent: est. 0.60) [pmol] | response (PKA-GINS, Q12488; 3 pmoles GINS input, parent: est. 1.4) [pmol] | response (PKA-GINS, Q12488; 10 pmoles GINS input, parent: est. 2.5) [pmol] | response ([2]; 1 pmole CDK-Sld3 input, parent: est. 0.34) [pmol] | response ([2]; 3 pmoles CDK-Sld3 input, parent: est. 0.60) [pmol] | response ([2]; 10 pmoles CDK-Sld3 input, parent: est. 1.5) [pmol]
1 | Sld2 T84D (protein) MYSFELDKLKIELKTWEHDFIDKNKREPTRDDIKSLRTVRQMYKQYSTLKKKQSLQRQKVDTQESVELPAHKKDHDEVVEIGPDPQVYGKAISIFDMNLSPIKPIYMTFTNNIDVNNDNSKTISNESSPRKTILLKSSPADRTLVAEPISSVKRQLNFQMLNASSTRTPTSSPCKNRNGKLVEIKKCSPTINPPLESGKPSGYYGPNSPLKLDEENIHLNISLNSSTKRRLQIAYPSLQKTPSKDQADISTSFSPSPLIRRPLTKSLIELAREHTEIVKEFGVLQEEDIEEEEEGEEGENGYDEKNHEDDFGLEDELIRPKVVKDIFQEDDDNDDSQAREDTFIRKRPKRRKVIRRLRDNDPETETAGFERDVHKELVKLKRRKVAEFLGSTSQISDTEFEHDPEASSGVVSSEQKPTAKRKGRKKYNLVSNNFRRLKLPKKNRFSNGRWGRR | 0.28 | 0.64 | 1.6 |  |  |  |  |  | 
2 | GST-Dpb11-wild-type, P47027 K463E; K469E; R538E; K549E (protein) MKPFQGITFCPTAINNEILAKKISKKIIKLGGIFSKDLTRQVNVLVVGSTTNTNKFKFAVKHRFDIIFIDIQAIDDIYQLWLSGENILPDSNTATMTGSTYEMLKILYRRFSFKYLHNFNIFIGRITDTNITSIDSLVRSIKKLGCSSYNYQNFVIKDTSSHNDDDDQGQNGQISIFVTDTLLGARVNAAIEQNIPIVHFKWILDCQKRSALLPYDPYYLLPNIKDLPYDSIGSNSCDCWDKINTTFPTNIDAQSSLQRQQSSSTLTPSLPKTSSLLNKFKPKGEKIWDKAMSLQQHSKTNFSVLGQSPLSINNKQEDLSDNSTLIFKNCAFIIHHIFPGNHRSILTKIVVQNGGKIETSYLSGIYDHSYYIIPSNKALDSFNDLPEIIDDNDGIVTEFFIERCLYYQKLLHPIDLWSKPFLSTIEFQVSSSSKLLHHEFSSSPFLNVTITGFSGVELLHLTEVLNLLEPMGINYVEYLNKSTDILLINLAALPSIPKTHPLWSNEFSDLFTQFCINNNNDDPGDNNRKDFQNNSILENSMKRKIEYIEKFHSIPVVTPAFIFKLLSAASGENNEIFLNNIKWCIICPRGHKDDFKCKIKKPYYTSISSEKKYQN |  |  |  | 0.65 | 1.4 | 2.6 | 0.29 | 0.65 | 1.4
